Target: T1, His-tagged RAP2.3 (RAP2.3-His) (Arabidopsis thaliana, UniProt P42736 1-248)
T1 construct: RAP2.3 (related to AP2.3), Arabidopsis thaliana; not shown: His, C-terminal, kept
Experiment: pull-down; GST or ORA59-GST (10 μg) on glutathione sepharose 4B beads, RAP2.3-His (10 μg) added for 2 h at 4°C; 25 mM Tris-HCl pH 8.0, 100 mM NaCl, 1% Triton X-100, 1 mM DTT; immunoblot with anti-GST and anti-His
Conditions: both partners purified

T1 sequence (P42736 whole entry): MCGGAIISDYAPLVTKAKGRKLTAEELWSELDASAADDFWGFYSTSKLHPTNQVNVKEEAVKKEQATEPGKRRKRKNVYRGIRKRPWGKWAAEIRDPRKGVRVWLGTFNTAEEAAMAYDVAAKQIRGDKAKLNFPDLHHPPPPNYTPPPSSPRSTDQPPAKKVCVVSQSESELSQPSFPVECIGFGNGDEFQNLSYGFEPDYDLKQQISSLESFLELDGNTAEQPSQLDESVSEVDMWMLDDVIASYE

B1: C-terminal GST-tagged ORA59 (ORA59-GST) (natural protein)
chain: not shown
notes: ORA59 (octadecanoid-responsive arabidopsis 59), Arabidopsis thaliana; not shown: GST, C-terminal, kept
B1: binds.

Reference: paper PMC6254012, “AP2/ERF Family Transcription Factors ORA59 and RAP2.3 Interact in the Nucleus and Function Together in Ethylene Responses” (Frontiers in Plant Science, 2018)
